Measurements: the supplement of paper PMC7125110
± gives the standard error. This sample holds only a part of the variants without activity.

B1: glmS ribozyme (parent)
chain: AUAAAAGCGCCAGAACUACAGAAAUGUAGUUGACGAGGAGGAGGUUUAUCGAAUUUUCGGCGGAUGCCUCCAAA

What was measured:
Details in all cases: with glucosamine-6-phosphate
glucosamine-6-phosphate [1] = variants of: B1; experiment: self-cleavage kobs at 640 uM GlcN6P; higher = faster cleavage; RNA array
How it was run: (§1)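 Weighted Michaelis–Menten fits across concentrations supplied kcat and KM, based on kobs from one- or two-exponential decay fits to normalised per-tile medians. The data came from barcoded ribozyme variants transcribed in situ by E. coli RNA polymerase on sequenced MiSeq chips and tracked at 37 °C by a hybridised Cy3 probe. Glucosamine-6-phosphate (40 μM to 10 mM) in HEPES/KCl/Mg(OAc)2 buffer was flowed in.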

glucosamine-6-phosphate [2] = variants of: B1; experiment: self-cleavage kobs at 2500 uM GlcN6P; higher = faster cleavage; RNA array
How it was run: as §1

glucosamine-6-phosphate [3] = variants of: B1; experiment: self-cleavage kobs at 10000 uM GlcN6P; higher = faster cleavage; RNA array
How it was run: as §1

Variant	self-cleavage kobs at 640 uM GlcN6P (glucosamine-6-phosphate [1]) [s⁻¹]	self-cleavage kobs at 2500 uM GlcN6P (glucosamine-6-phosphate [2]) [s⁻¹]	self-cleavage kobs at 10000 uM GlcN6P (glucosamine-6-phosphate [3]) [s⁻¹]
U31A C34U A42C A48U G62U	< 1e-05		
U30A G41U G43U U54C	< 1e-05		
C11G G13C G38C C58A	< 1e-05	< 1e-05	
C16G U30A U55G	0.000125 ± 5.7e-05	8.11e-05 ± 3.1e-05	
A12G C58G C71U	9.42e-05 ± 1.7e-05	3.81e-05 ± 1.2e-05	
C11U A15U C70G	0.000134 ± 4.8e-05		
A14U G41A U45A	6.25e-05 ± 2.9e-05	0.000195 ± 5.4e-05	
C16G U56C C58U	< 1e-05		
C11U A42C U54C G59A G60A	< 1e-05	< 1e-05	
A15C G32A G38U	< 1e-05		
A14C A42G G66A	0.000473 ± 0.00012		0.00177 ± 0.0006
U31G C34G U65A	< 1e-05		
G21U U47G	0.00247 ± 0.00049		
A14C G40A G60U	< 1e-05	< 1e-05	
G13U A14U A48U	< 1e-05	< 1e-05	
A33G A48C C68U	< 1e-05		

Variant	self-cleavage kobs at 640 uM GlcN6P (glucosamine-6-phosphate [1]) [s⁻¹]	self-cleavage kobs at 2500 uM GlcN6P (glucosamine-6-phosphate [2]) [s⁻¹]	self-cleavage kobs at 10000 uM GlcN6P (glucosamine-6-phosphate [3]) [s⁻¹]
A14G U31A G41A C71U	0.000186 ± 7.9e-05	0.000396 ± 0.00011	
C11A A48U C70A	9.74e-05 ± 2.9e-05		
A14C C16A G43U C68U	< 1e-05	< 1e-05	
G13U G32A C70A	5.59e-05 ± 2.4e-05	0.000106 ± 3.2e-05	
U31G G37U U69G	6.98e-05 ± 2.8e-05	9.82e-05 ± 3e-05	
G29A G40C	5.68e-05 ± 1.5e-05	0.000243 ± 4.7e-05	
A33C U47C U65G	< 1e-05	< 1e-05	
G29A G35U	< 1e-05	< 1e-05	< 1e-05
A12C U47A C50A U55A C58U A64G	< 1e-05		
C16A U31C A33G C34A A52U C68U	< 1e-05		
C16U A33G C50U U54G	< 1e-05	< 1e-05	< 1e-05
C11G U47G C50A C70G	0.000245 ± 6.2e-05	0.000139 ± 4e-05	7.52e-05 ± 1.9e-05
C11A G37C G62A	< 1e-05		
C11G G37C A39G	< 1e-05	< 1e-05	
G13U G43C A64G	< 1e-05		
